Experimental data as given in doi:10.1101/2022.03.21.485124.

Legend:
Experiment in all cases: SEC
[1] = biological target: human CD81 large extracellular loop domain, mutant D139N (human)
[2] = biological target: human CD81 large extracellular loop domain, mutant E188Q (human)
[3] = biological target: wild-type human CD81 large extracellular loop domain (wt-hCD81LEL) (human)

human CD81 large extracellular loop domain, mutant D139N (domain or fragment)
stoichiometry N [1]: 2

human CD81 large extracellular loop domain, mutant E188Q (domain or fragment)
stoichiometry N [2]: 2

wild-type human CD81 large extracellular loop domain (wt-hCD81LEL) (domain or fragment)
stoichiometry N [3]: 2
